Data reported in PMC4258232 (Cell stem cell, 2014).
Read-outs that look alike come from different tables or passages of the source.

T1: GST-SET7/9 (full length) (UniProt Q8WTS6 1-366)
T1 sequence (looked up): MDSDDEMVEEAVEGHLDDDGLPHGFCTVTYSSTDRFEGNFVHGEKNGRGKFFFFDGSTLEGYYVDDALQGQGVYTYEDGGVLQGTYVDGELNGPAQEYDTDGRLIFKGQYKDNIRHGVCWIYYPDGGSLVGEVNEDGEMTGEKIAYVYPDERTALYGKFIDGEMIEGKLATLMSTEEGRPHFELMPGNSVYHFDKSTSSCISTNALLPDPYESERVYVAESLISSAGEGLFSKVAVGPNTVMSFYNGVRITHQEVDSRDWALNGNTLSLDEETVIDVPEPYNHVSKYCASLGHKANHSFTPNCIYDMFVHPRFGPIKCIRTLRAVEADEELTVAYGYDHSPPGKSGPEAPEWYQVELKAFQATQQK

B1: 6×HIS-LIN28A (full length) (natural protein, UniProt Q9H9Z2 1-209, looked up)
chain: MGSVSNQQFAGGCAKAAEEAPEEAPEDAARAADEPQLLHGAGICKWFNVRMGFGFLSMTARAGVALDPPVDVFVHQSKLHMEGFRSLKEGEAVEFTFKKSAKGLESIRVTGPGGVFCIGSERRPKGKSMQKRRSKGDRCYNCGGLDHHAKECKLPPQPKKCHFCQSISHMVASCPLKAQQGPSAQGKPTYFREEEEEIHSPTLLPEAQN
B2: 6×HIS-LIN28A-K135R (full length) (natural protein, UniProt Q9H9Z2 1-209, looked up)
chain: MGSVSNQQFAGGCAKAAEEAPEEAPEDAARAADEPQLLHGAGICKWFNVRMGFGFLSMTARAGVALDPPVDVFVHQSKLHMEGFRSLKEGEAVEFTFKKSAKGLESIRVTGPGGVFCIGSERRPKGKSMQKRRSRGDRCYNCGGLDHHAKECKLPPQPKKCHFCQSISHMVASCPLKAQQGPSAQGKPTYFREEEEEIHSPTLLPEAQN
B3: LIN28A carboxyl terminus (amino acids 125-209) (domain or fragment, UniProt Q9H9Z2 125-209, looked up)
chain: KGKSMQKRRSKGDRCYNCGGLDHHAKECKLPPQPKKCHFCQSISHMVASCPLKAQQGPSAQGKPTYFREEEEEIHSPTLLPEAQN

Assays:
GST-SET7/9 (full length) [1] = molecular target: T1, GST-SET7/9 (full length); assay: pull-down
GST-SET7/9 (full length) [2] = molecular target: T1, GST-SET7/9 (full length); assay: pull-down; remark: listed apart in the source

Binder | binding result (GST-SET7/9 (full length) [1]) | binding result (GST-SET7/9 (full length) [2])
B1 | binds | –
B2 | binds | –
B3 | – | binds
